# Test results published in patent publication US20030068675, “Position dependent recognition of GNN nucleotide triplets by zinc fingers” (published 2003).
# T1: ZFP SBS#1365 (synthetic)
# T1 chain: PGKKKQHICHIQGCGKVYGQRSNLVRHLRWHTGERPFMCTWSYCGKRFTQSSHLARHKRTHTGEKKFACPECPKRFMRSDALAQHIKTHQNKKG
# T2: ZFP SBS#1367 (synthetic)
# T2 chain: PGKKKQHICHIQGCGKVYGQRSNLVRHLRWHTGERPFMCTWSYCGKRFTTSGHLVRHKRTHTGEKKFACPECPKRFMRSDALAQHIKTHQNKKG
# T3: ZFP SBS#1364 (synthetic)
# T3 chain: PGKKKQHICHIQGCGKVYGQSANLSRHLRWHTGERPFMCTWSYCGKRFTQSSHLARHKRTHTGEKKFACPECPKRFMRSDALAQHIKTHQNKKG
# T4: ZFP SBS#1366 (synthetic)
# T4 chain: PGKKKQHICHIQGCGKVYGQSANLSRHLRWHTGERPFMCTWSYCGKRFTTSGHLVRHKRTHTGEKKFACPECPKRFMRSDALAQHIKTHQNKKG
# T5: ZFP SBS#1361 (synthetic)
# T5 chain: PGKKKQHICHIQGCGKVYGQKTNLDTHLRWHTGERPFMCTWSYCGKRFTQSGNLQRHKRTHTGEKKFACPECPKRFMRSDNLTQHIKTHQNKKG
# T6: ZFP SBS#1363 (synthetic)
# T6 chain: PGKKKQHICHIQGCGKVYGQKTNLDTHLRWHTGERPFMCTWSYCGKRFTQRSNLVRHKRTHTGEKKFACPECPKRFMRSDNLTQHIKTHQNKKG
# T7: ZFP SBS#1396 (synthetic)
# T7 chain: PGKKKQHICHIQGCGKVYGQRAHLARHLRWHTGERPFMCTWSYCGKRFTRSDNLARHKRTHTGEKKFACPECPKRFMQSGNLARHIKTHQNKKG
# T8: ZFP SBS#1360 (synthetic)
# T8 chain: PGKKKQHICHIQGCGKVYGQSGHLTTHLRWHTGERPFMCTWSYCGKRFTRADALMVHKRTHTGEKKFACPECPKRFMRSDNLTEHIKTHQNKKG
# T9: ZFP SBS#1380 (synthetic)
# T9 chain: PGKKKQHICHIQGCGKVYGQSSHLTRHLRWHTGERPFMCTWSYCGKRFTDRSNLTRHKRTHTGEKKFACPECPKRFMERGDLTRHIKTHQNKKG
# T10: ZFP SBS#1383 (synthetic)
# T10 chain: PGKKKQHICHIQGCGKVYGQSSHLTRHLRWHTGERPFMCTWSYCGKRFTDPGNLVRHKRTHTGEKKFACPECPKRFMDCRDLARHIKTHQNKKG
# T11: ZFP SBS#1382 (synthetic)
# T11 chain: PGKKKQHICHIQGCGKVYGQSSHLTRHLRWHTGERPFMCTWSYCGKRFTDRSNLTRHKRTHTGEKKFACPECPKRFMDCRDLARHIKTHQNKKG
# T12: ZFP SBS#1381 (synthetic)
# T12 chain: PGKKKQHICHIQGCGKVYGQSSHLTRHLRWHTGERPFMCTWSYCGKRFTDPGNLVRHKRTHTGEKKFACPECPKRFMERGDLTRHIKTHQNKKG
# T13: ZFP SBS#1384 (synthetic, UniProt P08047)
# T13 chain: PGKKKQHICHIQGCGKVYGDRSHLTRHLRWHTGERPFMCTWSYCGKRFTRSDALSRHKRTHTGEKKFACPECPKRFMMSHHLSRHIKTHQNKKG
# T14: ZFP SBS#1386 (synthetic)
# T14 chain: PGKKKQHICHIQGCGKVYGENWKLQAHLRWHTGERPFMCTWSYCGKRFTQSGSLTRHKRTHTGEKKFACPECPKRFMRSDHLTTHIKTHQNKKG
# T15: ZFP SBS#1368 (synthetic)
# T15 chain: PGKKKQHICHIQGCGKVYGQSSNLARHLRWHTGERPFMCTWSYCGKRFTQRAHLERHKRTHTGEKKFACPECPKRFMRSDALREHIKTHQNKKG
# T16: ZFP SBS#1369 (synthetic)
# T16 chain: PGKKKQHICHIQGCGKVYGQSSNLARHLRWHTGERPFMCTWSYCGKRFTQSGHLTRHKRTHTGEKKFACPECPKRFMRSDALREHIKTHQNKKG
# T17: ZFP SBS#1400 (synthetic)
# T17 chain: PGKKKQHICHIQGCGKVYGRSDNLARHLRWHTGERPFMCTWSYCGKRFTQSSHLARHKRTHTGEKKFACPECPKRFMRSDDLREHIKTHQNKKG
# T18: ZFP SBS#1389 (synthetic)
# T18 chain: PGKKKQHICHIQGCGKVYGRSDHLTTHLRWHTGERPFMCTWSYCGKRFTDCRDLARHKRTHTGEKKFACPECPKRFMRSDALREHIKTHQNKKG
# T19: ZFP SBS#1331 (synthetic)
# T19 chain: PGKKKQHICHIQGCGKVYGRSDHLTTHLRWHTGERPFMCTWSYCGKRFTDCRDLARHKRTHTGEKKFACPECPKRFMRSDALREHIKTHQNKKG
# T20: ZFP SBS#1329 (synthetic)
# T20 chain: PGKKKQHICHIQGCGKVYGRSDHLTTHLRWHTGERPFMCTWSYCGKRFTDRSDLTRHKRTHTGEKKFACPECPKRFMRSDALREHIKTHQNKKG
# T21: ZFP SBS#1374 (synthetic, UniProt P08047)
# T21 chain: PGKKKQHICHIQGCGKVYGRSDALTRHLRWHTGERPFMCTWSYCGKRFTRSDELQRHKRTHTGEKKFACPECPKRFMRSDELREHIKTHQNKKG
# T22: ZFP SBS#1378 (synthetic)
# T22 chain: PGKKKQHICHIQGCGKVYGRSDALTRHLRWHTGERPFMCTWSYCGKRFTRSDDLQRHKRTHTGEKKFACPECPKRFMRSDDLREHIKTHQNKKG
# T23: ZFP SBS#1376 (synthetic)
# T23 chain: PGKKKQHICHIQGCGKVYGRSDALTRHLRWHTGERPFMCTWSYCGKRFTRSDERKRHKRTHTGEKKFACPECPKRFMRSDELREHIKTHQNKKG
# T24: ZFP SBS#1377 (synthetic, UniProt P08047)
# T24 chain: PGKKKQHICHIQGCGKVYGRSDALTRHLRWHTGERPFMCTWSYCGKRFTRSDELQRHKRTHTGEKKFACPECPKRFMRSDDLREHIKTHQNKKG
# T25: ZFP SBS#1379 (synthetic)
# T25 chain: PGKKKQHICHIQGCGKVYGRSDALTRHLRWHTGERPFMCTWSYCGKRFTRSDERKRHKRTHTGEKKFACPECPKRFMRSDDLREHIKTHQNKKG
# T26: ZFP SBS#1375 (synthetic)
# T26 chain: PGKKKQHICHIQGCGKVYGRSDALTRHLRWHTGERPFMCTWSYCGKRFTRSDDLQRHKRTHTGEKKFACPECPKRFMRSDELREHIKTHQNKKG
# T27: ZFP SBS#1373 (synthetic, UniProt P08047)
# T27 chain: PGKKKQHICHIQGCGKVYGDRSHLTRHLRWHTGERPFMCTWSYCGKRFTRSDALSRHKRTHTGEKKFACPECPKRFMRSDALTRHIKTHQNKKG
# How the values were obtained:
# Test in all cases: EMSA
# Settings in all cases: tags: MBP fusion
# [1] = target: T1, ZFP SBS#1365
# Summary of the method: (§1)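 Purified ZFP was titrated against labeled double-stranded target (1 nM or lower, at least 10-fold below expected Kd) carrying the natural binding site with flanks. Binding buffer was 10 mM Tris pH 7.5, 100 mM KCl, 1 mM MgCl2, 0.1 mM ZnCl2, 5 mM DTT, 10% glycerol, 0.02% BSA, with equilibration for at least 45 min. Bound and free target were separated on a 10% polyacrylamide gel.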
# [2] = target: T2, ZFP SBS#1367
# Summary of the method: as §1
# [3] = target: T3, ZFP SBS#1364
# Summary of the method: as §1
# [4] = target: T4, ZFP SBS#1366
# Summary of the method: as §1
# [5] = target: ZFP SBS#1403 (synthetic)
# Summary of the method: as §1
# [6] = target: ZFP SBS#1394 (synthetic, UniProt P08047)
# Chain of ZFP SBS#1394 (P08047 other isoform, or with tags, fused parts or gaps): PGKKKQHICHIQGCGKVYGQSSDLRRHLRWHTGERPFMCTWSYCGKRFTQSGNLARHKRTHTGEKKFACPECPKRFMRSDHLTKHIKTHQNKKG
# Summary of the method: as §1
# [7] = target: ZFP SBS#1393 (synthetic)
# Summary of the method: as §1
# [8] = target: ZFP SBS#262 (synthetic)
# Chain of ZFP SBS#262 (synthetic) (chain, as listed by the source): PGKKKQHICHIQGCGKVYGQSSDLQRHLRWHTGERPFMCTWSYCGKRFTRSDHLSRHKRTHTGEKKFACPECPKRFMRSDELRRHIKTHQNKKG
# Summary of the method: as §1
# [9] = target: ZFP SBS#263 (synthetic, UniProt P08047)
# Chain of ZFP SBS#263 (P08047 other isoform, or with tags, fused parts or gaps): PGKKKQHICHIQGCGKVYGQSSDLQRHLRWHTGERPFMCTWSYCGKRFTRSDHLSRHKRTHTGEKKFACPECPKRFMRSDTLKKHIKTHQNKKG
# Summary of the method: as §1
# [10] = target: ZFP SBS#1362 (synthetic)
# Summary of the method: as §1
# [11] = target: T5, ZFP SBS#1361
# Summary of the method: as §1
# [12] = target: T6, ZFP SBS#1363
# Summary of the method: as §1
# [13] = target: ZFP SBS#1397 (synthetic)
# Chain of ZFP SBS#1397 (synthetic) (chain, as listed by the source): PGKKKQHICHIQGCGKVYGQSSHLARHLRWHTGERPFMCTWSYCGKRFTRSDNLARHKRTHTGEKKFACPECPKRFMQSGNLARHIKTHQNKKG
# Summary of the method: as §1
# [14] = target: T7, ZFP SBS#1396
# Summary of the method: as §1
# [15] = target: ZFP SBS#1395 (synthetic)
# Chain of ZFP SBS#1395 (synthetic) (chain, as listed by the source): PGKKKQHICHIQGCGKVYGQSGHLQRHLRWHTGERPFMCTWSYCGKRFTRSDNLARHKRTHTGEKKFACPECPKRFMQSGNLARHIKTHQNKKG
# Summary of the method: as §1
# [16] = target: T8, ZFP SBS#1360
# Summary of the method: as §1
# [17] = target: T9, ZFP SBS#1380
# Summary of the method: as §1
# [18] = target: T10, ZFP SBS#1383
# Summary of the method: as §1
# [19] = target: T11, ZFP SBS#1382
# Summary of the method: as §1
# [20] = target: T12, ZFP SBS#1381
# Summary of the method: as §1
# [21] = target: T13, ZFP SBS#1384
# Summary of the method: as §1
# [22] = target: T14, ZFP SBS#1386
# Summary of the method: as §1
# [23] = target: ZFP SBS#1385 (synthetic)
# Chain of ZFP SBS#1385 (synthetic) (chain, as listed by the source): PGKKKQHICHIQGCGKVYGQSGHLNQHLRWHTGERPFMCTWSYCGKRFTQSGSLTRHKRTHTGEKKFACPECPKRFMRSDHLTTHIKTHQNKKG
# Summary of the method: as §1
# [24] = target: T15, ZFP SBS#1368
# Summary of the method: as §1
# [25] = target: T16, ZFP SBS#1369
# Summary of the method: as §1
# [26] = target: T17, ZFP SBS#1400
# Summary of the method: as §1
# [27] = target: T18, ZFP SBS#1389
# Summary of the method: as §1
# [28] = target: T19, ZFP SBS#1331
# Summary of the method: as §1
# [29] = target: T20, ZFP SBS#1329
# Summary of the method: as §1
# [30] = target: T21, ZFP SBS#1374
# Summary of the method: as §1
# [31] = target: T22, ZFP SBS#1378
# Summary of the method: as §1
# [32] = target: T23, ZFP SBS#1376
# Summary of the method: as §1
# [33] = target: T24, ZFP SBS#1377
# Summary of the method: as §1
# [34] = target: T25, ZFP SBS#1379
# Summary of the method: as §1
# [35] = target: T26, ZFP SBS#1375
# Summary of the method: as §1
# [36] = target: T27, ZFP SBS#1373
# Summary of the method: as §1
binder,measurement,setting,value
ATGGGTGAA (dsDNA) DNA 1: ATGGGTGAA DNA 2: TTCACCCAT,Kd,[1],0.152 nM
same,Kd,[2],1.03 nM
same,Kd,[3],1.22 nM
same,Kd,[4],22.6 nM
ATGGCAATG (dsDNA) DNA 1: ATGGCAATG DNA 2: CATTGCCAT,Kd,[5],0.07 nM
TGGGAAGCT (dsDNA) DNA 1: TGGGAAGCT DNA 2: AGCTTCCCA,Kd,[6],0.04 nM
same,Kd,[7],0.1 nM
GCGGGGGCT (dsDNA) DNA 1: GCGGGGGCT DNA 2: AGCCCCCGC,Kd,[8],20 nM
same,Kd,[9],1 nM
AAGGAAAAA (dsDNA) DNA 1: AAGGAAAAA DNA 2: TTTTTCCTT,Kd,[10],0.332 nM
same,Kd,[11],0.835 nM
same,Kd,[12],74.1 nM
GAAGAGGGA (dsDNA) DNA 1: GAAGAGGGA DNA 2: TCCCTCTTC,Kd,[13],0.14 nM
same,Kd,[14],0.107 nM
same,Kd,[15],0.025 nM
CAGTTGTGA (dsDNA) DNA 1: CAGTTGTGA DNA 2: TCACAACTG,Kd,[16],41.7 nM
GCCGACGGT (dsDNA) DNA 1: GCCGACGGT DNA 2: ACCGTCGGC,Kd,[17],0.076 nM
same,Kd,[18],1.74 nM
same,Kd,[19],3.1 nM
same,Kd,[20],0.23 nM
GGTGTGGGC (dsDNA) DNA 1: GGTGTGGGC DNA 2: GCCCACACC,Kd,[21],0.013 nM
TGGGCAAGA (dsDNA) DNA 1: TGGGCAAGA DNA 2: TCTTGCCCA,Kd,[22],0.193 nM
same,Kd,[23],0.229 nM
CTGGGAGAT (dsDNA) DNA 1: CTGGGAGAT DNA 2: ATCTCCCAG,Kd,[24],0.051 nM
same,Kd,[25],0.227 nM
CCGGGTGAG (dsDNA) DNA 1: CCGGGTGAG DNA 2: CTCACCCGG,Kd,[26],0.371 nM
CTGGCCTGG (dsDNA) DNA 1: CTGGCCTGG DNA 2: CCAGGCCAG,Kd,[27],0.175 nM
same,Kd,[28],0.388 nM
same,Kd,[29],0.68 nM
CCGGCGGTG (dsDNA) DNA 1: CCGGCGGTG DNA 2: CACCGCCGG,Kd,[30],3 pM
same,Kd,[31],0.012 nM
same,Kd,[32],0.858 nM
same,Kd,[33],0.012 nM
same,Kd,[34],0.25 nM
same,Kd,[35],8 pM
GTGGTGGGC (dsDNA) DNA 1: GTGGTGGGC DNA 2: GCCCACCAC,Kd,[36],0.025 nM
